This assay deals with T1, protein A (UniProt P38507 37-477).
T1 construct: also called Protein A superantigen
The assay can be described thus: phage ELISA on coated protein A; signal after 80 C 10 min then 4 C 10 min as % of the untreated sample (heat/cool assay). Background: An ELISA detects its analyte on a solid surface through an enzyme-linked reagent.

B1: HEL4 VH (other)
VH: QVQLLESGGGLVQPGGSLRLSCAASGFRISDEDMGWVRQAPGKGLEWVSSIYGPSGSTYYADSVKGRFTISRDNSKNTLYLQMNSLRAEDTAVYYCASALEPLSEPLGFWGQGTLVTVSS
Take B1: the “Retained binding to protein A” value stood at 88%.

The values above are taken from US20120207673A1 (GARVAN INSTITUTE OF MEDICAL RESEARCH, published 2012).
